B1: TPR t1 (parent)
chain: GACCAAUCUGCCCUCAGAGCUCGAGAACAUCUUCGGAUGCAGAGGAGGCAGGCUUCGGUGGCGCGAUAGCGCCAACGUCCUCAACCUCCAAUGCAUCCCACCACAUGAUGAUGCCUGAAGAGCCUUGGUUUUUUG

Variants of: B1
Assay: polymerase ribozyme fitness, log enrichment relative to wild type (log ratio); higher = more active; in vitro selection for triplet polymerase activity
Method in brief: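 In triplicate, a single round of in vitro selection was run on each mutant library, PCR-built and transcribed, covering one subunit of a heterodimeric triplet polymerase ribozyme. Frozen incubation at −7 °C followed annealing with a biotinylated primer, partner subunit and triplets, and extended constructs were then gel-excised, streptavidin-captured and taken through RT-PCR. Fitness is the logarithm of genotype enrichment over wild-type enrichment, from inverse-variance-weighted replicate averages of Illumina-sequenced inputs and outputs. […] only genotypes with ≥10 input reads and ≥1 read per output were kept.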

| Variant | polymerase ribozyme fitness (log ratio) |
| --- | --- |
| U14A G36C G47A | -4.55 |
| C15A A46U G77U | -2.81 |
| C15A C62U A84G C94U | -3.06 |
| U14G C15G | -5.02 |
| C15G A41U C56U U96C C124G | -2.08 |
| U14A A16U A50U C72A U81C | -5.83 |
| U14C A83C | -2.26 |
| U14C A18G C49G G61A G69A G113A | -5.84 |
| U14A U30A A66U G69U U92G C94A G117C | -6.34 |
| C15G A26C U54G G71U C114U | -5.95 |
| U14C U21A G61A G117C | -3.39 |
| C13U U116C | 1.02 |
| U14C G58U C70U G71U | -3.19 |
| C15G C49U U106A | -3.74 |
| C15A C70G | -3.97 |
| C15G A95U U116G | -2.63 |
| U14G C15U C20G C70U C123A | -5.25 |
| U14A G42C G110C | -5.7 |
| C13U U112C G135U | 1.11 |
| C15A C101U U112A | -1.08 |
| U14G C53U C85A C88G | -3.97 |
| U14A C70U U126C G135U | -3.92 |
| C15A C40A C70A C97U G120U | -5.14 |
| U14A A37U A84G | -2.93 |

| Variant | polymerase ribozyme fitness (log ratio) |
| --- | --- |
| C15A C82U C89A U96A C104U | -3.39 |
| C15A A29U | -4.28 |
| U14A C40A A50G A74G G117U | -5.9 |
| C15A C114A | -4.98 |
| C15G A118U C123U | -0.83 |
| C15A U96A | -2.85 |
| C15A A37U C76U | -2.8 |
| C15A A37U C76G | -2.94 |
| C15A A43U | -3.28 |
| C15A A41U U129A | -4.72 |
| C15A U92C G110C C115U G127U | -6 |
| U14G C73U A90G C124A | 1.54 |
| C15A G36U G42A C49G G60U | -6.51 |
| U14G C34A A121G | -0.374 |
| U14A U78C | -2.86 |
| C15A C64U G110C | -6.12 |
| U14G G19A G42A C56A G93C | -5.15 |
| C15A C94U G120C | -0.704 |
| U14G C89G | -3.56 |
| U14G C56U C70A A83C C104G G110A U116A | -5.43 |
| U14A C49U G60C A103C U112A C123G | -6.39 |
| C15A G63U | -3.03 |
| C15G C20U C62A G117U | -3.55 |
| U14G A121C | 0.71 |

| Variant | polymerase ribozyme fitness (log ratio) |
| --- | --- |
| C15A G113A | -3.63 |
| C15A G47C U133C | -3.12 |
| C15A C97A G120A U130A | -4.97 |
| C15G A83G G120C | -2.3 |
| U14G C62U C73U | -2.29 |
| C15G A74U C88A C101U | -4.74 |
| C15A C53U A66U | -4.71 |
| U14C G71C | -2.35 |
| U14A A37U G52A U59C G71A | -3.95 |
| C13U U112A | 1.43 |
| C13U U112G | 1.14 |
| C15A G39A U87G U112G | -2.16 |
| U14G A27G A29G G36C C40U C56A G63U C115U G122A | -6.64 |
| U14C G113A A118U | -4.79 |
| C15A C86A U129A | -4.12 |
| C15A C20G G71U A91C C98G C123U U133G | -4.96 |
| C15G C53G G60A | -3.25 |
| U14C A27U G44U C49A C94U G117C G127C | -7.98 |
| U14G A75U C94U U109C G127C U133G | -4.46 |
| U14A G63U C79U | -3.41 |
| U14C C104U | -0.978 |
| U14C C34A U87A | -4.01 |
| C15A G25C C34G C64U G113A | -7.48 |
| U14C U132C | -1.36 |

| Variant | polymerase ribozyme fitness (log ratio) |
| --- | --- |
| C15A G61A C85U C98G A105G U109A C124U | -6.62 |
| U14A U112G | -0.736 |
| U14A C124A | -0.31 |
| C15A C49A U55G A74C U81G A90G G117U | -3.52 |
| C15A U78C C88A C102A | -5.8 |
| C15G C53U C85G | -4.35 |
| C15G A43U | -3.43 |
| U14G U55C C70A G135U | -4.4 |
| C15A C40U G120C | -0.554 |
| C15G A18U G63C A91C | -4.66 |
| U14A G93A C102U | -4.36 |
| U14C C20U G58U C62G | -5.26 |
| U14C C102U | -3.54 |
| C15A A24U C70U G77C G110C | -6.25 |
| C15A U133G | -3.68 |
| U14G C15U A37U C56A A66C | -5.37 |
| U14G U125A | -2.09 |
| U14C C15U G39A G117A | -0.915 |
| U14G U96A G110A | -3.75 |
| U14G G45C | -3.41 |
| U14A A18U G60C | -4.66 |
| U14A A111C C115A | -5.18 |
| U14G C89A C99G G113C C115U | -7.29 |
| C15G C40U G61A C89U A91C C123G | -0.621 |

| Variant | polymerase ribozyme fitness (log ratio) |
| --- | --- |
| C15G C70A | -5.24 |
| U14A C70U | -1.67 |
| U14G C40G C73A A105U | -4.25 |
| U14A C15U C88U U96C G120U | -1.94 |
| U14G C40A C62U | -3.06 |
| C15G A43U A84U | -5.64 |
| C15A G39C C114G | -4.44 |
| C15A G63A G127C | -4.4 |
| C15A A46C G52C A91U U129G | -6.42 |
| U14G C72A U106G | -3.74 |
| C15A G63U A68G A111G | -7.51 |
| U14A A37G G120A | -0.881 |
| U14A C88G C99U C123U U131G U134A | -3.82 |
| C15G C20U | -2.98 |
| C15A G117A U129C | -2.87 |
| C15A G42A C53A C101U | -4.53 |
| C15G A95C A119U | -3.82 |
| U14C A90C | -3.39 |
| C15A C49U A90U A108G C114G | -6.22 |
| U14G C76A | -2.76 |
| C15A A27C U55G A111U | -6.51 |
| U14C G60C U96A | -3.46 |
| U14G C49U G93C C101A | -4.35 |
| C15A A43G U96C U112C | -2.05 |

| Variant | polymerase ribozyme fitness (log ratio) |
| --- | --- |
| U14A G127U | -3.57 |
| C15A G69U C88U U125C | -3.27 |
| U14C A26G A50G G52C U106C G117A | -5.87 |
| C15G A74U G117U | -0.0169 |
| C15A C94U C114G U126A | -5.6 |
| C15A C28U G61C | -5.32 |
| C15A G48U A50G C115U | -4.63 |
| C15G C70U A84G | -5.53 |
| C15A C20U G58A U87G A90C C114G | -4.17 |
| C15A A37G G45U G93U U112C G122C C123G U125A | -5.64 |
| C15A C124G | 0.792 |
| U14A G120C | 0.0767 |
| U14A A83U C86A U112A U131A | -2.42 |
| U14G A91C C97U | -4.05 |
| U14C G36U C53G G61U | -2.63 |
| C15A G47U C123U | -2.56 |
| U14G C72U G135U | -2.55 |
| C15A U106G | -3.3 |
| U14C C56G | -2.27 |
| C15A G71C C97G G117U | -5.07 |
| U14G C15G U33G C40A C114G U130C | -5.88 |
| C15A C73G | -3.16 |
| C15A G17A C73G U112A | -4.93 |
| C15A G36U G61A | -3.38 |

| Variant | polymerase ribozyme fitness (log ratio) |
| --- | --- |
| U14C G57U C80A U133A | -3.25 |
| U14G G71U G93U A105U | -6.14 |
| U14G U112A | -0.444 |
| U14A U33G A37U G42U G61C U109A | -6.69 |
| U14A G71A | -2.77 |
| U14G G42C A46C C53U | -4.19 |
| U14G C62U | -1.97 |
| C15A U59A U126A | -4.53 |
| U14G A50C G63C C94A | -3.63 |
| U14A A50C C80G G120U | -5.23 |
| C15A U54A C56A | -2.64 |
| C15A G42A C56A G69U A100C U132A | -4.53 |
| C15A A37U G57A G61C | -3.97 |
| U14A G25U C34U G52U C56A A90G G93C C114G A121C G135A | -6.59 |
| U14C C70A G117U | -5.57 |
| U14A A91C C115G U133A | -4.89 |
| U14A G57C G58A G61A C89U G127U U129C U130C | -6.54 |
| C15A U87G A91C U112C G128C G135U | -5.85 |
| C15G C62U A90G U126A | -3.64 |
| C15A G69A C104U | -4.06 |
| C15G A16U G61U G122U C123U | -2.55 |
| C15A G71A | -2.63 |
| U14C A84C | -2.42 |
